Reference: patent US20120114665A1 (Regeneron, published 2012)
Residue numbers refer to the chain shown, from its start. Several values for one entry are separate records, joined by “and”; a condition that tells them apart may be missing. Equal entries are not always repeated. Blank lines part the entries; values can stand above or below the binder they belong to.

How the values were obtained:
[1] = biological target: T1, human RANKL (receptor activator of NF-κB ligand) (human, UniProt O14788 140-317, limits assumed); experiment: cell-based or functional assay
T1 sequence: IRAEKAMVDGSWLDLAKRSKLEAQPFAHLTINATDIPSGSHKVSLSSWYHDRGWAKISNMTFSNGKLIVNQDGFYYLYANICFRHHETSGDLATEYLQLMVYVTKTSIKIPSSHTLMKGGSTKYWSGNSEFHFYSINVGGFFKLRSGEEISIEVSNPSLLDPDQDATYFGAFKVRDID

[2] = biological target: T1, human RANKL (receptor activator of …); experiment: SPR (BIACORE), purified antibody, 25°C
[3] = biological target: T1, human RANKL (receptor activator of …); experiment: SPR (BIACORE), purified antibody, 37°C
penta-his-tagged hRANKL = biological target: T2, penta-his-tagged hRANKL (human); experiment: competition ELISA: 150 pM his-hRANKL pre-mixed with antibody, free RANKL detected on hRANK-hFc plate
T2 construct: also called his-hRANKL; not shown: penta-his tag
T2 chain: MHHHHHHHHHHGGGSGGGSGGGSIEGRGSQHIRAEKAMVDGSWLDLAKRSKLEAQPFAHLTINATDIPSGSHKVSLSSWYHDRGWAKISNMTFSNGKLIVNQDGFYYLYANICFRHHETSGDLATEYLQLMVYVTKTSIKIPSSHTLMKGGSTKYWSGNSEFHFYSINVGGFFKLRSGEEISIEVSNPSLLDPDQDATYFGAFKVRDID
Procedure: (§1) Briefly, hRANK-hFc protein was coated on a 96-well plate in PBS buffer overnight at 4° C. at 2 μg/ml, and nonspecific binding was blocked with BSA, to form a hRANK-hFc surface.

[4] = biological target: T3, penta-his-tagged monkey (Macaca fascicularis) RANKL (Macaca fascicularis, UniProt O14788 125-317 (human entry)); experiment: competition ELISA: 150 pM his-mfRANKL pre-mixed with antibody, free RANKL detected on hRANK-hFc plate
T3 construct: also called his-mfRANKL; mfRANKL; not shown: penta-his tag
T3 chain: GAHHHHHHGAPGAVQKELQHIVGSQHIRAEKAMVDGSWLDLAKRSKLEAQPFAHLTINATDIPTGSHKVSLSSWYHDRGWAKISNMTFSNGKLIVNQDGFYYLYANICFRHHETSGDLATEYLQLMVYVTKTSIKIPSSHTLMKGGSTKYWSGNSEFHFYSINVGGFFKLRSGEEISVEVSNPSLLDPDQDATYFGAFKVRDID
Procedure: as §1

[5] = biological target: T1, human RANKL (receptor activator of …); experiment: SPR (BIACORE 2000), antibody captured on anti-hFc, hRANKL injected
Procedure: Equilibrium dissociation constants (KD values) for antigen binding to the selected antibodies generated by hybridoma cell lines described above were determined by surface kinetics in a real-time biosensor surface plasmon resonance assay (BIACORE™ 2000). Each selected antibody was captured on a goat anti-mouse IgG polyclonal antibody surface created through direct chemical coupling to a BIACORE™ chip to form a captured antibody surface.
Each selected antibody was captured on a goat anti-hFc polyclonal antibody (Jackson Immuno Research Lab) surface created through direct chemical coupling to a BIACORE™ chip to form a captured antibody surface (Table 2).

[6] = biological target: T4, hRANKL captured on an anti-penta-his antibody surface (human, UniProt O14788 136-317); experiment: SPR (BIACORE), hRANKL captured on anti-penta-his, antibody 25-100 nM injected, 25°C
T4 construct: also called captured hRANKL surface; not shown: his tag implied by capture on anti-penta-his
T4 sequence: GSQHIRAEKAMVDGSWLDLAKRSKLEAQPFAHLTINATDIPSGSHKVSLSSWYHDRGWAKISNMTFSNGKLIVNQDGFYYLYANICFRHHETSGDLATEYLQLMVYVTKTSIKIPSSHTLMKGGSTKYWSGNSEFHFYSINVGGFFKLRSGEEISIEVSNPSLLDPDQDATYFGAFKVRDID

[7] = biological target: T4, hRANKL captured on an anti-penta-his …; experiment: SPR (BIACORE), hRANKL captured on anti-penta-his, antibody 25-100 nM injected, 37°C

IC50, hRANKL-inducible luciferase activity in HK293/RANK/NFκB-luc-eGFP cells [1]: 0.102 nM
Kd [2]: 0.198 nM
Kd [3]: 0.0424 nM
IC50 (penta-his-tagged hRANKL): 0.065 nM
IC50 [4]: 0.875 nM
B1: H4H009G (antibody, V domains shown)
VH: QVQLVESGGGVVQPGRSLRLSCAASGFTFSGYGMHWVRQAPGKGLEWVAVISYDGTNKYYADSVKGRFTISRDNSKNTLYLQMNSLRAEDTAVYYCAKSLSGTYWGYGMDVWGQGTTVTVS
VL: DIQMTQSPSTLSASVGDRVTITCRASQNIGNWLAWYQQKPGKAPKLLIYKASSLESGVPSRFSGSGSGTEFTLTISSLQPDDFATYYCQRYNSYSWTFGQGTKVEIK
notes: Purified antibody from clone 2H10

IC50, hRANKL-inducible luciferase activity in HK293/RANK/NFκB-luc-eGFP cells [1]: 1.17 nM
Kd [2]: 0.601 nM
Kd [3]: 0.0453 nM
IC50 (penta-his-tagged hRANKL): 1.16 nM
IC50 [4]: 4.32 nM
B2: H4H005P (antibody, V domains shown)
VH: QVQLVESGGGVVHPGRSLTLSCAASGFTFSGYGMHWVRQAPGKGLEWVAVISYDGINKYYADSVKGRFTISRDNSKNTLYLQMNSLRAEDTAIYYCAKCLSGSYWGFGMDVWGQGTTVTVS
VL: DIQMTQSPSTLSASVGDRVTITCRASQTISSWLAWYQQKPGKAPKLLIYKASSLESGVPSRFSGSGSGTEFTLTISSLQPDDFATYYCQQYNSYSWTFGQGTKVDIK
notes: Purified antibody from clone 2E10

IC50, hRANKL-inducible luciferase activity in HK293/RANK/NFκB-luc-eGFP cells [1]: 0.051 nM
Kd [2]: 0.0697 nM
Kd [3]: 0.0779 nM
IC50 (penta-his-tagged hRANKL): 0.045 nM
IC50 [4]: 0.15 nM
B3: H4H010P (antibody, V domains shown)
VH: QVQLVESGGGVVQPGRSLRLSCAASGFTFSGYGMHWVRQAPGKGLDWVTVISYDGSNKHYADSVKGRFTISRDNSKNTLYLQMSSLGPEDTAVYYCAKSLSGTYWGYGMDVWGQGTTVTVS
VL: B1 VL with G30S, N31S, I75V, R90Q, S93R
notes: Purified antibody from clone 2H12

Kd [5]: 0.0172 nM
B4: 2E10 (antibody, V domains shown)
VH: QVQLVQSGGGVVHPGRSLTLSCAASGFTFSGYGMHWVRQAPGKGLEWVAVISYDGINKYYADSVKGRFTISRDNSKNTLYLQMNSLRAEDTAIYYCAKCLSGSYWGFGMDVWGQGTTVTVSS
VL: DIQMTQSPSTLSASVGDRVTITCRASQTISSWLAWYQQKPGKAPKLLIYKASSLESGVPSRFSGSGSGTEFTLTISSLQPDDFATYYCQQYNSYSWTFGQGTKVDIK
notes: From direct isolation of splenocytes; captured on anti-hFc; also called H4H005N

Kd [5]: 0.0957 nM
B5: 2E12 (antibody, V domains shown)
VH: B4 VH with H13Q, T19R, K43M, Y80F, I93L, S103T, F107Y
VL: B1 VL with D1A, N28S, G30S, N31S, Q38L, S63G, R90H
notes: From direct isolation of splenocytes; captured on anti-hFc; also called H4H007N

IC50, hRANKL-inducible luciferase activity in HK293/RANK/NFκB-luc-eGFP cells [1]: 1.06 nM
Kd [2]: 0.0762 nM
Kd [3]: 0.0241 nM
IC50 (penta-his-tagged hRANKL): 3.13 nM
IC50 [4]: 9.59 nM
B6: H4H005G (antibody, V domains shown)
VH: B2 VH with H13Q, T19R, I93V
VL: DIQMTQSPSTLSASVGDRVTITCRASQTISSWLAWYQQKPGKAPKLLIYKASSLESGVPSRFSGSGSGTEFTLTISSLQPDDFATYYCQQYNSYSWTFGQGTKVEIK
notes: as for B2

IC50, hRANKL-inducible luciferase activity in HK293/RANK/NFκB-luc-eGFP cells [1]: 0.171 nM
Kd [2]: 0.265 nM
Kd [3]: 0.0415 nM
IC50 (penta-his-tagged hRANKL): 0.195 nM
IC50 [4]: 1.24 nM
B7: H4H006G (antibody, V domains shown)
VH: B2 VH with H13Q, T19R, S30G, I56N, I93V, S103T, F107Y, V111G
VL: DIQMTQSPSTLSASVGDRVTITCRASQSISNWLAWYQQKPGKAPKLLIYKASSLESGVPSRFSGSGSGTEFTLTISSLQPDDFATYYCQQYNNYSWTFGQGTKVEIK
notes: Purified antibody from clone 2E11

IC50, hRANKL-inducible luciferase activity in HK293/RANK/NFκB-luc-eGFP cells [1]: 0.045 nM and 0.084 nM
Kd [2]: 0.173 nM
Kd [3]: 0.0248 nM
Kd [6]: 0.376 nM
T1/2 [6]: 60 min
Kd [7]: 0.881 nM
T1/2 [7]: 7.8 min
IC50 (penta-his-tagged hRANKL): 0.06 nM
IC50 [4]: 0.345 nM
B8: H4H009P (antibody, V domains shown)
VH: QVQLVESGGGVVQPGRSLRLSCAASGFTFSGYGIHWVRQAPDKGLEWVAVISYDGTNKYYGDSVKGRFTISRDNTKNTLYLQMNSLRTEDTAVYYCAKSLSGTYWGYGMDVWGQGTTVTVS
VL: B1 VL with E55Q, S56N
notes: as for B1

IC50, hRANKL-inducible luciferase activity in HK293/RANK/NFκB-luc-eGFP cells [1]: 0.08 nM
Kd [2]: 0.172 nM
Kd [3]: 0.044 nM
IC50 (penta-his-tagged hRANKL): 0.085 nM
IC50 [4]: 0.42 nM
B9: H4H006P (antibody, V domains shown)
VH: B8 VH with S30G, I34M, T56N, G61V, T75S, T78M, T88A, S99C, V111G
VL: B1 VL with N28S, G30S, S53N, E55Q, R90Q, S93N
notes: as for B7
